Reference: US10647739B2, “Flavonoids O-A-glucosylated on the B cycle, method for the production thereof and uses” (Institut National de la Recherche Agronomique, priority 2014, dated 2020)
“And” between values parts separate entries of the source, which are not always exact repeats. Equal values may be shown once.

Assays:
[1] = naringenin glucosylation acceptor reaction with recombinant glucansucrases (microplate screening); assay type: biochemical; details: sucrose 146 mM, naringenin 5 mM, 3% DMSO, 30° C., 24 h, HPLC-UV 340 nm peak areas
Description: (§1) The enzymatic extracts obtained are used to carry out the flavonoid glucosylation enzymatic screening reactions. The enzymatic activity of each centrifuged cell lysate is evaluated in the microplate format, by final weight after 30 minutes incubation in the presence of a final concentration of 146 mM of sucrose, by assaying the reducing sugars with 3,5-dinitrosalicylic acid (DNS). Finally, after dilution in ultrapure water, the absorbance is read at 540 nm.
(§2) The flavonoid acceptor reactions are then carried out in deep-well microplates, in a volume of 300 μl, at final concentrations of sucrose of 146 mM and of flavonoid of 2.5 mM (apigenin) or 5 mM (naringenin) (initially dissolved in 100% DMSO), and 140 μl of centrifuged cell lysate.
(§3) The final DMSO concentration in the reaction medium is 3% (v/v).
(§4) The incubation is carried out at 30° C. and at 700 rpm. After 24 hours, the enzymes are denatured at 95° C. for 15 minutes. These microplates are stored at −80° C. with a view to rapid evaluation of the flavonoid glucosylation by liquid-phase chromatography coupled to mass spectrometry (HPLC-MS or LC-MS).
(§5) With a view to their analyses by HPLC-MS, the extensively homogenized reaction media are diluted to 1/30th in DMSO. The separation of the flavonoids and of their glucosylated forms is carried out in reverse phase with a ProntoSlL Eurobond® 53×3.0 mm 120-3-C18-AQ column (porosity of 120 Å, particle size of 3 μm, C18 grafting, Bischoff Chromatography, Germany).
(§6) The flavonoid glucosylation efficiency was determined from the following formula: Glucosylation efficiency=(Σ(area of the peak of glucosylated flavonoid(s)))/(Σ(area of the peak of glucosylated flavonoid(s))+area of the peak of residual aglycone flavonoid)×100
The flavonoid glucosylation efficiency was determined from the formula set out in example 2. The flavonoid glucosylation efficiencies, expressed as a percentage, were calculated from the areas of the peaks of the various products analyzed, as described in example 1, by HPLC with a UV detector (λ340 nm), after 24 h of reaction.

[2] = apigenin glucosylation acceptor reaction with recombinant glucansucrases (microplate screening); assay type: biochemical; details: sucrose 146 mM, apigenin 2.5 mM, 3% DMSO, 30° C., 24 h, HPLC-UV 340 nm peak areas
Description: as §1, §2, §3, §4, §5, §6
The flavonoid glucosylation efficiencies, expressed as a percentage, were calculated from the areas of the peaks of the various products analyzed, as described in example 1, by HPLC with a UV detector (340 nm) after 24 h of reaction.

Molecule: α-1,2 BrS: wild-type glucansucrase α-1,2 BrS, SEQ ID NO: 11
- naringenin glucosylation efficiency [1]: 26.8%
- apigenin glucosylation efficiency [2]: 2.5%

B1: ASNp WT: wild-type recombinant amylosucrase from Neisseria polysaccharea (protein, UniProt Q9ZEU2 1-636, looked up)
Amylosucrase: MLTPTQQVGLILQYLKTRILDIYTPEQRAGIEKSEDWRQFSRRMDTHFPKLMNELDSVYGNNEALLPMLEMLLAQAWQSYSQRNSSLKDIDIARENNPDWILSNKQVGGVCYVDLFAGDLKGLKDKIPYFQELGLTYLHLMPLFKCPEGKSDGGYAVSSYRDVNPALGTIGDLREVIAALHEAGISAVVDFIFNHTSNEHEWAQRCAAGDPLFDNFYYIFPDRRMPDQYDRTLREIFPDQHPGGFSQLEDGRWVWTTFNSFQWDLNYSNPWVFRAMAGEMLFLANLGVDILRMDAVAFIWKQMGTSCENLPQAHALIRAFNAVMRIAAPAVFFKSEAIVHPDQVVQYIGQDECQIGYNPLQMALLWNTLATREVNLLHQALTYRHNLPEHTAWVNYVRSHDDIGWTFADEDAAYLGISGYDHRQFLNRFFVNRFDGSFARGVPFQYNPSTGDCRVSGTAAALVGLAQDDPHAVDRIKLLYSIALSTGGLPLIYLGDEVGTLNDDDWSQDSNKSDDSRWAHRPRYNEALYAQRNDPSTAAGQIYQGLRHMIAVRQSNPRFDGGRLVTFNTNNKHIIGYIRNNALLAFGNFSEYPQTVTAHTLQAMPFKAHDLIGGKTVSLNQDLTLQPYQVMWLEIA
- naringenin glucosylation efficiency [1]: 4.7±1.7% and 4.7%
- naringenin glucosylation efficiency ([1]; listed as A289A): 3.4%
- naringenin glucosylation efficiency ([1]; listed as D394D): 0.0%
- naringenin glucosylation efficiency ([1]; listed as F229F): 0.0%
- naringenin glucosylation efficiency ([1]; listed as F290F): 0.0%
- naringenin glucosylation efficiency ([1]; listed as I228I): 0.0%
- naringenin glucosylation efficiency ([1]; listed as I330I): 0.0%
- naringenin glucosylation efficiency ([1]; listed as R226R): 2.5%
- naringenin glucosylation efficiency ([1]; listed as R446R): 6.0%
- naringenin glucosylation efficiency ([1]; listed as V331V): 4.7%
- apigenin glucosylation efficiency [2]: 0.5±0.5% and 0.5%
- apigenin glucosylation efficiency ([2]; listed as A289A): 0.6%
- apigenin glucosylation efficiency ([2]; listed as D394D): 0.1%
- apigenin glucosylation efficiency ([2]; listed as F229F): 0.8%
- apigenin glucosylation efficiency ([2]; listed as F290F): 0.8%
- apigenin glucosylation efficiency ([2]; listed as I228I): 0.8%
- apigenin glucosylation efficiency ([2]; listed as I330I): 0.8%
- apigenin glucosylation efficiency ([2]; listed as R226R): 0.3%
- apigenin glucosylation efficiency ([2]; listed as V331V): 0.2%

B2: V331A: ASNp amylosucrase single mutant (protein, UniProt Q9ZEU2 1-636, looked up, variant V331A)
Amylosucrase: MLTPTQQVGLILQYLKTRILDIYTPEQRAGIEKSEDWRQFSRRMDTHFPKLMNELDSVYGNNEALLPMLEMLLAQAWQSYSQRNSSLKDIDIARENNPDWILSNKQVGGVCYVDLFAGDLKGLKDKIPYFQELGLTYLHLMPLFKCPEGKSDGGYAVSSYRDVNPALGTIGDLREVIAALHEAGISAVVDFIFNHTSNEHEWAQRCAAGDPLFDNFYYIFPDRRMPDQYDRTLREIFPDQHPGGFSQLEDGRWVWTTFNSFQWDLNYSNPWVFRAMAGEMLFLANLGVDILRMDAVAFIWKQMGTSCENLPQAHALIRAFNAVMRIAAPAAFFKSEAIVHPDQVVQYIGQDECQIGYNPLQMALLWNTLATREVNLLHQALTYRHNLPEHTAWVNYVRSHDDIGWTFADEDAAYLGISGYDHRQFLNRFFVNRFDGSFARGVPFQYNPSTGDCRVSGTAAALVGLAQDDPHAVDRIKLLYSIALSTGGLPLIYLGDEVGTLNDDDWSQDSNKSDDSRWAHRPRYNEALYAQRNDPSTAAGQIYQGLRHMIAVRQSNPRFDGGRLVTFNTNNKHIIGYIRNNALLAFGNFSEYPQTVTAHTLQAMPFKAHDLIGGKTVSLNQDLTLQPYQVMWLEIA
- naringenin glucosylation efficiency [1]: 0.0%
- apigenin glucosylation efficiency [2]: 0.5%

B3: DSR-S vardelΔ4N S512C: mutant of truncated DSR-S, SEQ ID NO: 10 (protein)
chain: TQQVSGKYVEKDGSWYYYFDDGKNAKGLSTIDNNIQYFYESGKQAKGQYVTIDNQTYYFDKGSGDELTGLQSIDGNIVAFNDEGQQIFNQYYQSENGTTYYFDDKGHAATGIKNIEGKNYYFDNLGQLKKGFSGVIDGQIMTFDQETGQEVSNTTSEIKEGLTTQNTDYSEHNAAHGTDAEDFENIDGYLTASSWYRPTGILRNGTDWEPSTDTDFRPILSVWWPDKNTQVNYLNYMADLGFISNADSFETGDSQSLLNEASNYVQKSIEMKISAQQSTEWLKDAMAAFIVAQPQWNETSEDMSNDHLQNGALTYVNSPLTPDANSNFRLLNRTPTNQTGEQAYNLDNSKGGFELLLANQEDNSNVVVEAEQLNWLYYLMNFGTITANDADANFDGIRVDAVDNVDADLLQIAADYFKLAYGVDQNDATANQHLSILEDWSHNDPLYVTDQGSNQLTMDDYVHTQLIWSLTKSSDIRGTMQRFVDYYMVDRSNDSTENEAIPNYSFVRAHDCEVQTVIAQIVSDLYPDVENSLAPTTEQLAAAFKVYNEDEKLADKKYTQYNMASAYAMLLTNKDTVPRVYYGDLYTDDGQYMATKSPYYDAINTLLKARVQYVAGGQSMSVDSNDVLTSVRYGKDAMTASDTGTSETRTEGIGVIVSNNAELQLEDGHTVTLHMGAAHKNQAYRALLSTTADGLAYYDTDENAPVAYTDANGDLIFTNESIYGVQNPQVSGYLAVWVPVGAQQDQDARTASDTTTNTSDKVFHSNAALDSQVIYEGFSNFQAFATDSSEYTNVVIAQNADQFKQWGVTSFQLAPQYRSSTDTSFLDSIIQNGYAFTDRYDLGYGTPTKYGTADQLRDAIKALHASGIQAIADWVPDQIYNLPEQELATVTRTNSFGDDDTDSDIDNALYVVQSRGGGQYQEMYGGAFLEELQALYPSLFKVNQISTGVPIDGSVKITEWAAKYFNGSNIQGKGAGYVLKDMGSNKYFKVVSNTEDGDYLPKQLTNDLSETGFTHDDKGIIYYTLSGYRAQNAFIQDDDNNYYYFDKTGHLVTGLQKINNHTYFFLPNGIELVKSFLQNEDGTIVYFDKKGHQVFDQYITDQNGNAYYFDDAGVMLKSGLATIDGHQQYFDQNGVQVKDKFVIGTDGYKYYFEPGSGNLAILRYVQNSKNQWFYFDGNGHAVTGFQTINGKKQYFYNDGHQSKGEFIDADGDTFYTSATDGRLVTGVQKINGITYAFDNTGNLITNQYYQLADGKYMLLDDSGRAKTGFVLQDGVLRYFDQNGEQVKDAIIVDPDTNLS
modifications: Leuconostoc mesenteroides
- naringenin glucosylation efficiency [1]: 0.0%
- apigenin glucosylation efficiency [2]: 13.9%
- apigenin glucosylation efficiency ([2]; listed as S512C): 13.9%
